± gives the uncertainty stated by the source.
Experiment: protein stability index of a GFP-peptide fusion (yeast GPS) (PSI 1-4); higher = more stable; sorted into four equal gates, so the index is relative within each strain
Outline: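 Tiled 17-residue yeast protein peptides were fused downstream of GFP in a plasmid that also expresses Cherry, and the pooled library was carried in yeast. Mid-log cultures in leucine-free medium were sorted into four equal gates by GFP/Cherry fluorescence ratio, and plasmids from each gate were PCR-amplified and Illumina-sequenced, with reads assigned to strains by barcodes. The protein stability index for each peptide was each gate's read frequency times its gate number, summed.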

Row | Sequence | protein stability index (doa10∆) | protein stability index (pdr5∆) | protein stability index (san1∆) | protein stability index (ubr1∆)
1 | LVLLELVSSGDRFIELI [YML103C/NUP188] | 2.56 ± 0.1 | 2.08 ± 0.07 | 2.21 ± 0.068 | 2.3 ± 0.088
2 | LAVLALVIVKKGEQELE [RPS6A] | 1.61 ± 0.038 | 1.56 ± 0.045 | 2 ± 0.072 | 2.54 ± 0.05
3 | VVSAVGEARNDIENKEE [YAR002W/NUP60] | 2.92 ± 0.056 | 3.17 ± 0.066 | 3.08 ± 0.041 | 2.9 ± 0.076
4 | YGITHGLTNWAAAYATG [RPL5] | 2.17 ± 0.086 | 2.43 ± 0.067 | 2.28 ± 0.09 | 2.26 ± 0.056
5 | NKLTGKQIVFEIPSETH [RPS7A] | 3 ± 0.09 | 2.95 ± 0.091 | 2.86 ± 0.068 | 2.78 ± 0.11
6 | SASHILIPASDLSWSKQ [PRP8] | 1.48 ± 0.069 | 1.93 ± 0.058 | 1.53 ± 0.082 | 1.95 ± 0.038
7 | PIDAGLNEAPFPEENII [MCD1] | 3.01 ± 0.069 | 2.88 ± 0.054 | 3.06 ± 0.033 | 2.96 ± 0.041
8 | KSSPISNEAAKPSFSFP [YOR098C/NUP1] | 2.86 ± 0.05 | 2.93 ± 0.045 | 2.96 ± 0.037 | 3 ± 0.04
9 | HVTQEDFELAVGKVMNK [RPT6] | 2.83 ± 0.17 | 2.82 ± 0.13 | 2.62 ± 0.13 | 2.69 ± 0.15
10 | RGRPPKARNGLDYVRTP [SNF2] | 1.52 ± 0.096 | 1.67 ± 0.087 | 2.41 ± 0.13 | 3.09 ± 0.074
11 | EAFIASGITDPYEMYKY [FAS2] | 1.81 ± 0.038 | 2.06 ± 0.05 | 1.73 ± 0.068 | 2.14 ± 0.045
12 | QKSFEQLNSRAVAVVVD [RPN11] | 1.45 ± 0.12 | 1.72 ± 0.09 | 1.51 ± 0.16 | 1.48 ± 0.058
13 | KEDTVSWFKQKYDADVL [RPL11A] | 1.5 ± 0.069 | 1.43 ± 0.055 | 1.57 ± 0.1 | 1.53 ± 0.06
14 | KTLTEEVTKSSHVENLE [YIL149C/MLP2] | 2.81 ± 0.053 | 2.94 ± 0.053 | 2.86 ± 0.051 | 3.13 ± 0.035
15 | AITHMIDALGTEFSKND [SCL1] | 2.47 ± 0.069 | 2.54 ± 0.044 | 2.7 ± 0.08 | 2.61 ± 0.031
16 | KLKHMVLDKMHARARGP [RET1] | 2.69 ± 0.094 | 2.84 ± 0.084 | 2.47 ± 0.067 | 2.65 ± 0.06
17 | KQENSSRFTNVSVIAPE [YMR153W/NUP53] | 2.71 ± 0.065 | 2.54 ± 0.055 | 1.59 ± 0.062 | 2.49 ± 0.033
18 | ARTATVSKKWAAAGVCE [RPL14B] | 2.9 ± 0.089 | 3.21 ± 0.084 | 3.58 ± 0.11 | 2.72 ± 0.066
19 | HVVGRIAEVGNKRWKVD [RRP4] |  | 3 ± 0.17 | 2.89 ± 0.16 | 2.67 ± 0.082
20 | VVVVGTVTDDARIFEFP [RPL18A] | 2.75 ± 0.14 | 2.9 ± 0.097 | 2.6 ± 0.15 | 2.79 ± 0.092
21 | TGKITKMFQDIRLSKIL [CDC53] | 2.73 ± 0.07 | 3.03 ± 0.093 | 2.66 ± 0.071 | 2.86 ± 0.069
22 | LVDNLNAEVVAGNIKCR [BRR2] | 1.79 ± 0.087 | 1.67 ± 0.07 | 1.72 ± 0.14 | 1.45 ± 0.075
23 | LTEAVEDGPRPFKVFLD [RPL5] | 3.03 ± 0.071 | 3.11 ± 0.061 | 3.02 ± 0.052 | 3.23 ± 0.036
24 | LNPNEYFSVTTARRNVS [SWI3] | 1.64 ± 0.072 | 1.67 ± 0.082 | 1.85 ± 0.14 | 2.19 ± 0.076
25 | IIQPFLDNSKMDYHFIF [RGR1] | 2.99 ± 0.13 | 2.06 ± 0.082 | 2.22 ± 0.049 | 2.31 ± 0.11
26 | EKNGGLGWDLDAIIPFA [FAS2] | 3.14 ± 0.098 | 3.22 ± 0.13 | 3.28 ± 0.066 | 3.08 ± 0.068

Row | Sequence | protein stability index (doa10∆) | protein stability index (pdr5∆) | protein stability index (san1∆) | protein stability index (ubr1∆)
27 | LTEEELKTRYVGRQDPK [RPN11] |  | 3.36 ± 0.13 | 3.26 ± 0.14 | 3.56 ± 0.21
28 | DPRNLVNQTGSTKKDTV [YCG1] | 2.9 ± 0.097 | 3.15 ± 0.084 | 2.53 ± 0.075 | 2.86 ± 0.039
29 | VSKEQFLKDADVECIKA [YJL039C/NUP192] | 1.45 ± 0.043 | 1.61 ± 0.059 | 2.17 ± 0.079 | 1.89 ± 0.042
30 | YPDFRHYGLAVDIYTHF [DIS3] | 2.17 ± 0.041 | 2.32 ± 0.041 | 1.9 ± 0.066 | 2.2 ± 0.031
31 | IPVKLLNEAQGHIVSLE [SMD3] | 3.14 ± 0.12 | 3.42 ± 0.16 | 2.77 ± 0.093 | 3.08 ± 0.11
32 | SNDRVNPLIELTPIQKK [ITC1] | 2.92 ± 0.2 | 1.99 ± 0.13 | 2.15 ± 0.27 | 2.65 ± 0.11
33 | ESGIKPYFEQKIQETEL [RPT6] | 2.93 ± 0.13 | 3.24 ± 0.14 | 2.64 ± 0.061 | 3.23 ± 0.094
34 | KAEKAEIRKRRASSLKA [RPS6A] | 2.9 ± 0.25 | 3.48 ± 0.11 |  | 3.06 ± 0.13
35 | DLVLGKPLADLRPLFTR [YLR335W/NUP2] | 2.97 ± 0.072 | 2.76 ± 0.11 | 2.84 ± 0.16 | 2.27 ± 0.069
36 | GGQIAHILFQNNPDMMI [ROX3] | 2.54 ± 0.041 | 2.63 ± 0.046 | 2.59 ± 0.052 | 2.97 ± 0.046
37 | IGSTSKRPIESGTSSDP [YIL149C/MLP2] | 3.23 ± 0.087 | 3.22 ± 0.1 | 3.17 ± 0.11 | 3.36 ± 0.064
38 | KNQLRDWIRFVSIRQNQ [RPL22B] | 1.51 ± 0.1 | 1.64 ± 0.061 |  | 1.29 ± 0.091
39 | EQHHINNLKNSGNSANN [GAL11] | 2.41 ± 0.14 | 2.09 ± 0.088 | 2.39 ± 0.1 | 2.32 ± 0.13
40 | VTVHSLTGEATANALPL [RPL4A] | 2.75 ± 0.069 | 2.76 ± 0.053 | 2.17 ± 0.052 | 2.86 ± 0.041
41 | TLYIGNTANGRPPVKAI [ECM29] | 1.84 ± 0.17 | 2 ± 0.094 | 1.99 ± 0.11 | 1.47 ± 0.11
42 | LDTYRERSKQLNEKFQE [SMC2] |  |  | 3.37 ± 0.12 | 
43 | NYGSSLQWHAMIELICS [AAR2] | 1.31 ± 0.13 | 1.22 ± 0.13 | 1.1 ± 0.16 | 1.34 ± 0.15
44 | ISPSAPSKDSFTKYKPA [YAR002W/NUP60] | 2.65 ± 0.079 | 2.9 ± 0.069 | 2.69 ± 0.094 | 2.98 ± 0.042
45 | YKFLDQNSDASTLEPTL [YIL149C/MLP2] | 2.24 ± 0.11 | 1.65 ± 0.092 | 2.27 ± 0.09 | 2.67 ± 0.18
46 | LNAINNAEKTGKRQVLL [RPS22B] | 3.35 ± 0.066 | 3.24 ± 0.078 | 3.26 ± 0.072 | 3.17 ± 0.05
47 | VLEDCRHLPMYTEFIDS [ITC1] | 2.34 ± 0.1 | 2.71 ± 0.075 | 2.77 ± 0.12 | 2.99 ± 0.066
48 | SDSLGPDTSNEICDLAY [SRB2] | 2.95 ± 0.065 | 3.17 ± 0.064 | 3.29 ± 0.065 | 3.31 ± 0.049
49 | ITHRDLHYDKDYNLRIY [SSN8] | 2.21 ± 0.051 | 2.1 ± 0.041 | 2.46 ± 0.043 | 2.18 ± 0.04
50 | MDVDQFDFLDDGTAQLS [YJR042W/NUP85] | 2.46 ± 0.079 | 2.98 ± 0.075 | 3.32 ± 0.068 | 2.53 ± 0.063
51 | SYQKAWDLLQSGSQNIS [RPN12] | 1.18 ± 0.096 | 1.11 ± 0.084 | 1.2 ± 0.13 | 1.08 ± 0.14
